Test system: peptide library, one residue held at a place counted from the Y acceptor
Assay: relative phosphorylation of the sub-library (ratio to the mean residue at this position); higher = residue favoured
Procedure, shortened: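 In 384-well plates, purified recombinant kinases were incubated for 90 min with 50 μM ATP containing γ-32P-ATP and biotinylated Tyr-centred peptide libraries, each mixture fixing one residue at a single position between −5 and +5. After capture on streptavidin membranes and rinsing, peptides were quantified by phosphorimaging with ImageQuant. Per-position intensities were scaled to the sum of the 18 (Ser/Thr-free library: 16) randomized residues, then multiplied by that number.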

Chain of FES, construct: Full length, human (P07332 whole entry, looked up): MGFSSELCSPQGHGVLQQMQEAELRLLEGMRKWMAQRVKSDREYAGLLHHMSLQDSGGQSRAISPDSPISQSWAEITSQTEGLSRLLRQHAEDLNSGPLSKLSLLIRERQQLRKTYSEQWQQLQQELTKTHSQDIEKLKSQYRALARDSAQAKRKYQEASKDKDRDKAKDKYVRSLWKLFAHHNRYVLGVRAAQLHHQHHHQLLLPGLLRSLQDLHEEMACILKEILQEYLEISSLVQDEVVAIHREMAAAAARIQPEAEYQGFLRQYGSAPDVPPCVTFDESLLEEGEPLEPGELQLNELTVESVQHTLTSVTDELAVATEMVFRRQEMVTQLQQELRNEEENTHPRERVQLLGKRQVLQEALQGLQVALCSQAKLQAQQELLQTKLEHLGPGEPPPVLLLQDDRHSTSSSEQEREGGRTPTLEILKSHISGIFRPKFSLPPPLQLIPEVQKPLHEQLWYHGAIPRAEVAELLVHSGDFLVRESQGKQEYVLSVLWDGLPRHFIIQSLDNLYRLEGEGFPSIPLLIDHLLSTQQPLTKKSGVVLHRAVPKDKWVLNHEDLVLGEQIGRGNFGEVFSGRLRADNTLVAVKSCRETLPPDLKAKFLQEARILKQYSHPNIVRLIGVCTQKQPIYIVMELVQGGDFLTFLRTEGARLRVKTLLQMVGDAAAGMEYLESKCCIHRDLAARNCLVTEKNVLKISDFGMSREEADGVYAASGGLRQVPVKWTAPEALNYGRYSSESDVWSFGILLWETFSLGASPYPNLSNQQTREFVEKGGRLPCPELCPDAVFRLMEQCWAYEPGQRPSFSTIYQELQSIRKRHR
Chain of FER, construct: aa-541-end, human (P16591 whole entry, looked up): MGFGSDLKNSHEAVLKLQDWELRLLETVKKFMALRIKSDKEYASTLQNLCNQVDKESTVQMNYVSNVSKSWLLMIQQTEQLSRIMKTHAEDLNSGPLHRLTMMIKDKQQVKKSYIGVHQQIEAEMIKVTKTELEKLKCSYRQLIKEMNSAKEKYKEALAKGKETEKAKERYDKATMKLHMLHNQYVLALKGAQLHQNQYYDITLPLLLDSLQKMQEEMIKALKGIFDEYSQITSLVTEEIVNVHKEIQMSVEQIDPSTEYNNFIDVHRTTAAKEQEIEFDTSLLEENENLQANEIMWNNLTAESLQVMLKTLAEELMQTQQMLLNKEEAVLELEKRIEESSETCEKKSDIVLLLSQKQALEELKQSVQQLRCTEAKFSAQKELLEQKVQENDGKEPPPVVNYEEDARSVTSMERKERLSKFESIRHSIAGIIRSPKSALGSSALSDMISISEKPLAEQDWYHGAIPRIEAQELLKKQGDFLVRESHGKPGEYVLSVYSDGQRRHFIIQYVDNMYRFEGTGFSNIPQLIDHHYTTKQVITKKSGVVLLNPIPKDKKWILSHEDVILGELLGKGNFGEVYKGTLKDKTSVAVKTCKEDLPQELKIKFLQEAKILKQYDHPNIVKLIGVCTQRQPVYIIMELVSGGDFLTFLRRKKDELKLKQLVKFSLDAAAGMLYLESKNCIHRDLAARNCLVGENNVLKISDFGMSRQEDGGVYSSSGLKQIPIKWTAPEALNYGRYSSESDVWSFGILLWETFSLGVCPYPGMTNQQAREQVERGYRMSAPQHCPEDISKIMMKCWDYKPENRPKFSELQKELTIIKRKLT
Chain of FGFR1, construct: aa456-765, human (P11362 456-765, looked up): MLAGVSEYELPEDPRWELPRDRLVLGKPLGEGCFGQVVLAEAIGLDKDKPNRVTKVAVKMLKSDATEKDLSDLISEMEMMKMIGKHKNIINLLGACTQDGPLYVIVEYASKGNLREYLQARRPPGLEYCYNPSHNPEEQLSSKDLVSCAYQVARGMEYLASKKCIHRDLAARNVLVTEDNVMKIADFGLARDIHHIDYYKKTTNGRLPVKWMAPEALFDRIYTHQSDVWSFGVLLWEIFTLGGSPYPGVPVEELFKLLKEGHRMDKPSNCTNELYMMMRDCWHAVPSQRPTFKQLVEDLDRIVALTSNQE

FER, construct: aa-541-end, human (from UniProt P16591)
relative phosphorylation
Conditions | at +1 | at +2 | at +3 | at +4 | at +5 | at -1 | at -2 | at -3 | at -4 | at -5
A fixed | 1.7 | 0.886 | 0.866 | 0.927 | 1.07 | 0.942 | 1 | 0.818 | 1.1 | 1.05
D fixed | 1.32 | 0.911 | 0.521 | 0.838 | 0.592 | 1.12 | 1.15 | 1.29 | 1.31 | 1.22
E fixed | 2.5 | 1.28 | 0.611 | 1.42 | 0.604 | 1.19 | 1.48 | 1.74 | 1.62 | 1.13
F fixed | 0.517 | 1.27 | 1.41 | 1.11 | 1.29 | 1.45 | 0.696 | 0.988 | 1.05 | 0.972
G fixed | 1.24 | 0.645 | 0.606 | 0.94 | 0.882 | 0.427 | 1.09 | 1.1 | 1.12 | 1.17
H fixed | 0.647 | 0.83 | 1.93 | 1.12 | 0.933 | 1.52 | 1.1 | 1.07 | 0.885 | 0.982
I fixed | 0.832 | 1.03 | 1.73 | 0.911 | 1.14 | 1.85 | 0.934 | 0.804 | 0.92 | 1.01
K fixed | 0.31 | 0.646 | 0.36 | 0.941 | 0.58 | 0.357 | 0.735 | 0.617 | 0.798 | 0.831
L fixed | 0.71 | 1.15 | 1.06 | 0.874 | 1.31 | 1.43 | 0.916 | 0.84 | 0.958 | 0.977
M fixed | 0.969 | 0.973 | 1.12 | 1.29 | 1.08 | 1.06 | 0.76 | 1.01 | 0.93 | 1.06
N fixed | 0.751 | 1.18 | 0.836 | 0.923 | 0.708 | 0.983 | 1.26 | 1.35 | 0.973 | 1.12
P fixed | 0.323 | 0.867 | 0.89 | 0.873 | 2.09 | 1.05 | 1.05 | 0.971 | 1.08 | 1.02
Q fixed | 1.48 | 0.878 | 0.658 | 1.11 | 0.846 | 0.73 | 1.18 | 0.859 | 1.14 | 1.05
R fixed | 0.35 | 0.737 | 0.547 | 1.12 | 0.721 | 0.309 | 0.901 | 0.762 | 0.757 | 0.898
S fixed | 1.42 | 0.917 | 0.82 | 0.766 | 0.999 | 0.619 | 1.1 | 1 | 0.794 | 0.849
T fixed | 1.14 | 0.96 | 0.839 | 0.775 | 1.05 | 0.866 | 0.932 | 0.997 | 0.664 | 0.824
V fixed | 1.13 | 0.929 | 1.34 | 0.922 | 1.19 | 1.29 | 0.897 | 0.788 | 0.825 | 0.807
W fixed | 0.667 | 1.91 | 1.86 | 1.14 | 0.931 | 0.809 | 0.824 | 0.981 | 1.07 | 1.04
pThr fixed | 1.55 | 1.12 | 0.721 | 0.549 | 0.543 | 1.14 | 1.18 | 1.26 | 1.2 | 1.09
pTyr fixed | 2 | 1.26 | 1.01 | 0.849 | 0.471 | 3.56 | 1.58 | 1.81 | 1.63 | 1.13

FES, construct: Full length, human (from UniProt P07332)
relative phosphorylation
Conditions | at +1 | at +2 | at +3 | at +4 | at +5 | at -1 | at -2 | at -3 | at -4 | at -5
A fixed | 1.45 | 0.535 | 0.428 | 0.817 | 1.18 | 0.518 | 1.05 | 0.86 | 1.26 | 1
D fixed | 0.789 | 0.715 | 0.235 | 0.622 | 0.47 | 0.77 | 1.01 | 1.52 | 1.16 | 0.941
E fixed | 2.65 | 0.794 | 0.289 | 1 | 0.374 | 0.567 | 1.27 | 1.89 | 1.27 | 0.9
F fixed | 0.872 | 1.58 | 1.32 | 1.07 | 1.71 | 1.3 | 0.851 | 1.44 | 1.13 | 1.14
G fixed | 0.754 | 0.372 | 0.35 | 1.01 | 0.809 | 0.274 | 1.26 | 0.985 | 1.4 | 1.09
H fixed | 0.471 | 0.425 | 0.752 | 0.957 | 1.24 | 0.718 | 0.917 | 0.826 | 0.74 | 0.979
I fixed | 1.07 | 1.3 | 3.25 | 1.25 | 1.23 | 4.02 | 1.02 | 0.823 | 1.1 | 1.07
K fixed | 0.208 | 0.294 | 0.21 | 0.592 | 0.394 | 0.273 | 0.62 | 0.44 | 0.615 | 0.766
L fixed | 0.854 | 1.56 | 1.45 | 0.795 | 1.35 | 2.41 | 1.24 | 0.866 | 1.1 | 1.09
M fixed | 1.82 | 1.36 | 2.19 | 1.68 | 1.52 | 1.05 | 0.917 | 1.18 | 1.19 | 1.24
N fixed | 0.332 | 0.848 | 0.273 | 0.57 | 0.593 | 0.618 | 0.982 | 1.02 | 0.762 | 1.14
P fixed | 0.332 | 0.643 | 0.361 | 0.845 | 1.44 | 0.599 | 1.21 | 0.917 | 1.01 | 0.883
Q fixed | 0.95 | 0.552 | 0.373 | 0.858 | 0.669 | 0.412 | 1.1 | 0.702 | 1.13 | 1.18
R fixed | 0.219 | 0.379 | 0.252 | 0.946 | 0.536 | 0.228 | 0.657 | 0.536 | 0.62 | 0.854
S fixed | 1.29 | 0.819 | 0.482 | 0.923 | 0.78 | 0.432 | 0.953 | 0.924 | 0.733 | 0.777
T fixed | 1.09 | 0.867 | 0.646 | 0.831 | 1.03 | 0.784 | 0.916 | 0.806 | 0.664 | 0.821
V fixed | 1.88 | 1.26 | 2.52 | 1.1 | 1.27 | 2.19 | 1.08 | 0.942 | 0.984 | 1.05
W fixed | 0.981 | 3.69 | 2.61 | 2.14 | 1.4 | 0.835 | 0.948 | 1.32 | 1.12 | 1.08
pThr fixed | 3.64 | 1.35 | 0.346 | 0.649 | 0.307 | 1.53 | 1.21 | 1.65 | 0.946 | 0.879
pTyr fixed | 3.48 | 1.27 | 0.712 | 1.14 | 0.357 | 9.09 | 2.21 | 2.25 | 1.83 | 1.55

FGFR1, construct: aa456-765, human (from UniProt P11362)
relative phosphorylation
Conditions | at +1 | at +2 | at +3 | at +4 | at +5 | at -1 | at -2 | at -3 | at -4 | at -5
A fixed | 1.01 | 0.593 | 0.546 | 0.853 | 0.912 | 0.836 | 0.925 | 0.939 | 1.11 | 1.05
D fixed | 0.332 | 0.728 | 0.463 | 0.791 | 1.17 | 2.09 | 1.05 | 1.22 | 1.02 | 1.05
E fixed | 0.68 | 1.06 | 0.407 | 0.769 | 1.06 | 1.29 | 1.17 | 1.23 | 1.09 | 0.859
F fixed | 1.81 | 1.68 | 1.57 | 1.12 | 0.897 | 1.06 | 0.673 | 0.814 | 0.905 | 0.897
G fixed | 0.332 | 0.406 | 0.514 | 1.27 | 1.22 | 0.557 | 1.19 | 1.08 | 1.22 | 1.12
H fixed | 1.62 | 0.924 | 0.968 | 1.06 | 0.867 | 1.17 | 1.17 | 1.03 | 1.05 | 1.05
I fixed | 1.66 | 1.14 | 2.43 | 1.13 | 0.744 | 1.3 | 0.907 | 0.816 | 0.823 | 0.921
K fixed | 0.379 | 0.581 | 0.302 | 0.866 | 0.903 | 0.461 | 1.03 | 1.01 | 1.02 | 1.12
L fixed | 0.938 | 1.35 | 1.79 | 1.13 | 0.737 | 0.921 | 0.829 | 0.69 | 0.769 | 0.891
M fixed | 1.07 | 1.07 | 1.65 | 0.981 | 0.822 | 0.758 | 0.826 | 0.917 | 0.803 | 0.95
N fixed | 0.428 | 0.954 | 0.415 | 0.758 | 0.999 | 1.35 | 1.25 | 1.34 | 1.02 | 1.24
P fixed | 1.13 | 0.702 | 0.621 | 1.3 | 1.72 | 0.954 | 0.919 | 0.962 | 1.22 | 0.954
Q fixed | 0.794 | 0.963 | 0.796 | 0.955 | 0.999 | 1.09 | 1.24 | 1.05 | 1.2 | 1.19
R fixed | 0.494 | 0.669 | 0.494 | 0.914 | 1.05 | 0.354 | 0.969 | 0.95 | 1.04 | 1.29
S fixed | 0.888 | 0.818 | 0.6 | 1.01 | 1.14 | 0.678 | 1.2 | 1.19 | 0.918 | 0.988
T fixed | 0.98 | 0.762 | 0.774 | 0.836 | 1.02 | 0.77 | 0.995 | 0.916 | 0.768 | 0.741
V fixed | 1.67 | 1.09 | 1.78 | 1 | 0.84 | 1.21 | 0.9 | 0.84 | 0.789 | 0.753
W fixed | 1.78 | 2.51 | 1.87 | 1.26 | 0.908 | 1.15 | 0.748 | 1.01 | 1.23 | 0.949
pThr fixed | 0.496 | 0.942 | 0.298 | 0.559 | 1.03 | 0.884 | 0.846 | 0.938 | 0.771 | 0.696
pTyr fixed | 2.43 | 2.39 | 0.408 | 0.758 | 0.987 | 2.02 | 1.13 | 1.06 | 1.07 | 0.764

Reference: the supplement of paper PMC11136658
